Laboratory results from PMC2715225 (Nucleic Acids Research, 2009).

Target: T1, His6-tagged human PSF (human, UniProt P23246 1-707)
T1 sequence (looked up): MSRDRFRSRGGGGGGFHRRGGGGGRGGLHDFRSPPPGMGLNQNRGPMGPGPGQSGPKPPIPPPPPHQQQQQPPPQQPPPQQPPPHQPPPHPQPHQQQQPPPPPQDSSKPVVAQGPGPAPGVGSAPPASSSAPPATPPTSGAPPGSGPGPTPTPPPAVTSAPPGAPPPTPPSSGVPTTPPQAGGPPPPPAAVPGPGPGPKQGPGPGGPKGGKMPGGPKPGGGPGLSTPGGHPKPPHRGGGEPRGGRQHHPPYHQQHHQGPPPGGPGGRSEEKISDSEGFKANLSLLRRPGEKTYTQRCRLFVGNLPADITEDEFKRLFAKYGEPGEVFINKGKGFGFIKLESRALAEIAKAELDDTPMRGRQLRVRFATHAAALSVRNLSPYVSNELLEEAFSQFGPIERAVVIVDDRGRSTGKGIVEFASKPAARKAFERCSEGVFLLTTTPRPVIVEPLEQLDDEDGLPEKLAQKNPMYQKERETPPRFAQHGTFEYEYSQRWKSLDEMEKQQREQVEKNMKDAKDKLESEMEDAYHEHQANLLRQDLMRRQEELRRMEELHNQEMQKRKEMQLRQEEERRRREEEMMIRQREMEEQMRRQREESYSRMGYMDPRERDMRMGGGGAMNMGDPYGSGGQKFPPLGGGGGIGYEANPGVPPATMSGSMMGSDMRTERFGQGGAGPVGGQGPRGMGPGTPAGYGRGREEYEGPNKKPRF
Assay: pull-down

stoichiometry N: ~1 PSF:RAD51
B1: Human RAD51 without His6 tag (natural protein, UniProt Q06609 1-339, looked up)
chain: MAMQMQLEANADTSVEEESFGPQPISRLEQCGINANDVKKLEEAGFHTVEAVAYAPKKELINIKGISEAKADKILAEAAKLVPMGFTTATEFHQRRSEIIQITTGSKELDKLLQGGIETGSITEMFGEFRTGKTQICHTLAVTCQLPIDRGGGEGKAMYIDTEGTFRPERLLAVAERYGLSGSDVLDNVAYARAFNTDHQTQLLYQASAMMVESRYALLIVDSATALYRTDYSGRGELSARQMHLARFLRMLLRLADEFGVAVVITNQVVAQVDGAAMFAADPKKPIGGNIIAHASTTRLYLRKGRGETRICKIYDSPCLPEAEAMFAINADGVGDAKD
